From article PMC5714209

Target: APOBEC3G (human), Q9HC16
Experiment: SEC
Conditions: remark: other sources report otherwise

B1: APOBEC3G, Q9HC16 1-384 (enzyme)
chain: MKPHFRNTVERMYRDTFSYNFYNRPILSRRNTVWLCYEVKTKGPSRPPLDAKIFRGQVYSELKYHPEMRFFHWFSKWRKLHRDQEYEVTWYISWSPCTKCTRDMATFLAEDPKVTLTIFVARLYYFWDPDYQEALRSLCQKRDGPRATMKIMNYDEFQHCWSKFVYSQRELFEPWNNLPKYYILLHIMLGEILRHSMDPPTFTFNFNNEPWVRGRHETYLCYEVERMHNDTWVLLNQRRGFLCNQAPHKHGFLEGRHAELCFLDVIPFWKLDLDQDYRVTCFTSWSPCFSCAQEMAKFISKNKHVSLCIFTARIYDDQGRCQEGLRTLAEAGAKISIMTYSEFKHCWDTFVDHQGCPFQPWDGLDEHSQDLSGRLRAILQNQEN
stoichiometry N: 2
